{
  "source": "FireProtDB (doi:10.1006/jmbi.1999.2732)",
  "details": "Homo sapiens, Thermal, DSC, Sodium phosphate 50 mM, reversible: no, whole UniProt chain shown",
  "data": [
    {"protein": "Annexin A1 wild type, P04083 (protein) MAMVSEFLKQAWFIENEEQEYVQTVKSSKGGPGSAVSPYPTFNPSSDVAALHKAIMVKGVDEATIIDILTKRNNAQRQQIKAAYLQETGKPLDETLKKALTGHLEEVVLALLKTPAQFDADELRAAMKGLGTDEDTLIEILASRTNKEIRDINRVYREELKRDLAKDITSDTSGDFRNALLSLAKGDRSEDFGVNEDLADSDARALYEAGERRKGTDVNVFNTILTTRSYPQLRRVFQKYTKYSKHDMNKVLDLELKGDIEKCLTAIVKCATSKPAFFAEKLHQAMKGVGTRHKALIRIMVSRSEIDMNDIKAFYQKMYGISLCQAILDETKGDYEKILVALCGGN", "values": [
      {"measurement": "Tm", "setting": "pH 3.2", "result": 41.1, "unit": "°C"},
      {"measurement": "unfolding enthalpy (calorimetric)", "setting": "pH 3.2", "result": 102, "unit": "kcal/mol"},
      {"measurement": "unfolding enthalpy (van 't Hoff)", "setting": "pH 3.2", "result": 101, "unit": "kcal/mol"},
      {"measurement": "Tm", "setting": "pH 3.4", "result": 48.5, "unit": "°C"},
      {"measurement": "unfolding enthalpy (calorimetric)", "setting": "pH 3.4", "result": 139, "unit": "kcal/mol"},
      {"measurement": "unfolding enthalpy (van 't Hoff)", "setting": "pH 3.4", "result": 119, "unit": "kcal/mol"},
      {"measurement": "Tm", "setting": "pH 3.8", "result": 56.4, "unit": "°C"},
      {"measurement": "unfolding enthalpy (calorimetric)", "setting": "pH 3.8", "result": 152, "unit": "kcal/mol"},
      {"measurement": "unfolding enthalpy (van 't Hoff)", "setting": "pH 3.8", "result": 142, "unit": "kcal/mol"},
      {"measurement": "Tm", "setting": "pH 4.5", "result": 62.3, "unit": "°C"},
      {"measurement": "unfolding enthalpy (calorimetric)", "setting": "pH 4.5", "result": 192, "unit": "kcal/mol"},
      {"measurement": "unfolding enthalpy (van 't Hoff)", "setting": "pH 4.5", "result": 200, "unit": "kcal/mol"},
      {"measurement": "Tm", "setting": "pH 5", "result": 62.7, "unit": "°C"},
      {"measurement": "unfolding enthalpy (calorimetric)", "setting": "pH 5", "result": 203, "unit": "kcal/mol"},
      {"measurement": "unfolding enthalpy (van 't Hoff)", "setting": "pH 5", "result": 206, "unit": "kcal/mol"},
      {"measurement": "Tm", "setting": "pH 6", "result": 61.8, "unit": "°C"},
      {"measurement": "unfolding enthalpy (calorimetric)", "setting": "pH 6", "result": 197, "unit": "kcal/mol"},
      {"measurement": "unfolding enthalpy (van 't Hoff)", "setting": "pH 6", "result": 224, "unit": "kcal/mol"},
      {"measurement": "Tm", "setting": "pH 7", "result": 59.9, "unit": "°C"},
      {"measurement": "unfolding enthalpy (calorimetric)", "setting": "pH 7", "result": 200, "unit": "kcal/mol"},
      {"measurement": "unfolding enthalpy (van 't Hoff)", "setting": "pH 7", "result": 220, "unit": "kcal/mol"},
      {"measurement": "Tm", "setting": "pH 8", "result": 58.5, "unit": "°C"},
      {"measurement": "unfolding enthalpy (calorimetric)", "setting": "pH 8", "result": 197, "unit": "kcal/mol"},
      {"measurement": "unfolding enthalpy (van 't Hoff)", "setting": "pH 8", "result": 215, "unit": "kcal/mol"}
    ]}
  ]
}
